Assay [1] addresses T1, human DLL3 on cells (h293-hDLL3 cells; endogenous DLL3 on NTX tumor cells) (human, UniProt Q9NYJ7 27-618).
T1 sequence: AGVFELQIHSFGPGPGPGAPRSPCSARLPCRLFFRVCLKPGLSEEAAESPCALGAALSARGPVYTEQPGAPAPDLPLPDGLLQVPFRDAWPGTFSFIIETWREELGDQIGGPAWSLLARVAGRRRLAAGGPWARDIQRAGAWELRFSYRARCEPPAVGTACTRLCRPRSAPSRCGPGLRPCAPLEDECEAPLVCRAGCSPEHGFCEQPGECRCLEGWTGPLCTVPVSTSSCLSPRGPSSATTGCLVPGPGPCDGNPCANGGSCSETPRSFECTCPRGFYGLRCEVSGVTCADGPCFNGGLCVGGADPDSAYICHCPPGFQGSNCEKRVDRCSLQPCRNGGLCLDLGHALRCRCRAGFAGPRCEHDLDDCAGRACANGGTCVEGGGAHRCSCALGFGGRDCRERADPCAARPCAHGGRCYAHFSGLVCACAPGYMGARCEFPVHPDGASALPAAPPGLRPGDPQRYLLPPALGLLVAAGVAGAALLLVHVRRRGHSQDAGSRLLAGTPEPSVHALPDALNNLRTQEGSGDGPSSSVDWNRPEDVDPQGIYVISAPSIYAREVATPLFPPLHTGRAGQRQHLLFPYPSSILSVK
Briefly: cell-based or functional assay.

In assay [2] the target is T2, murine DLL3 on 293 cells (h293-mDLL3) (murine, UniProt O88516 33-584).
T2 sequence: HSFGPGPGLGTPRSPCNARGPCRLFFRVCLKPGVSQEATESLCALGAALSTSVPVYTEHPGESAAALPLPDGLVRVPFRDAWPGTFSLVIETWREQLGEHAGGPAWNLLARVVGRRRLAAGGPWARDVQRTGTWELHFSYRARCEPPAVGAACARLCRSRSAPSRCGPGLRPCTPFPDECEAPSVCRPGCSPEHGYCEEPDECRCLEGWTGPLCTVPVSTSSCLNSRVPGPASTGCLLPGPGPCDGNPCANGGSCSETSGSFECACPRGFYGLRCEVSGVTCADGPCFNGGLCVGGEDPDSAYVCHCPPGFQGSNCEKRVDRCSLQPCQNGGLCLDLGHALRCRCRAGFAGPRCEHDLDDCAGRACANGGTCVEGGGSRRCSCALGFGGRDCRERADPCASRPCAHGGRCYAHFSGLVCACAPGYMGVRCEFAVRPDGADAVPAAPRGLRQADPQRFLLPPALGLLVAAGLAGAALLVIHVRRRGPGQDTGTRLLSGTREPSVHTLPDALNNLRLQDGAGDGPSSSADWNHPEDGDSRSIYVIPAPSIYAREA
Nature of the assay: flow cytometry on 293 cells over-expressing murine DLL3. (In general: A flow cytometer gives signals particle by particle.)

The target in assay [3] is T1, human DLL3 on cells (h293-hDLL3 cells; …). Nature of the assay: cell-based or functional assay. The source holds these as a separate data set.
For assay [4], the target named is T2, murine DLL3 on 293 cells (h293-mDLL3). Briefly: assay and form of the mouse antigen not given on the sheet; table of properties of humanized constructs.

Results on 13 molecules are retold here after US9133271 (AbbVie / Abbott, dated 2015).

B1: SC16.67 (antibody, V domains shown)
VH: EVQLVETGGGLVQPKGSLKLSCAVSAFTFTTYAMNWVRQAPGKGLEWVARIRNKSNNYATYYADSVKDRFTISRDDSQSMLYLQMNNLKIEDTAMYYCVFYYDYVYWGQGTLVTVSA
VL: QAVVTQESALTTSPGETVTLTCRSSTGAVTTSNYANWIQEKPDHLFTGLIGGTNNRAPGVPARFSGSLIGDKAALTITGAQTEDEAIYFCGLWYSNHLVFGGGTKLTVL
notes: murine anti-DLL3 mAb
B1: the “% Live Cells (in vitro), KDY66 cells, antibody plus anti-mouse IgG Fab-saporin” value (“% Live Cells (in vitro), KDY66 cells” below) in assay [1] stood at 37%. Also, the binding result in assay [2] was “no binding”.

B2: SC16.8 (antibody, V domains shown)
VH: QAQLQQSGAELVRPGTSVKVSCKASGYAFTNYLIEWVKQRPGQGLEWIGVINPGTGGTNYNENFKGKATLTADKSSSTAYMQLSSLTSDDSAVYFCARSPYDYHEGAMDYWGQGTSVTVSS
VL: EIQMTQSPSSMSASLGDRITITCQATQDIVKNLNWYQQKPGKPPSFLIYYAIELAEGVPSRFSGSGSGSDYSLTISNLESEDFADYYCLQFYEFPFTFGAGTKLELK
On to B2, for which the “% Live Cells (in vitro), KDY66 cells” value in assay [1] turned out to be 82%.

B3: SC16.34 (antibody, V domains shown)
VH: QIQLVQSGPELKRPGETVKISCKASGYTFTNYGMNWVKQAPGKGLKWMGWINTYTGDPTYADDFKGRFAFSLETSASTAYLQINNLKNEDTATYFCARIGGNSPSDYWGQGTSLTVSS
VL: SIVMTQTPKFLLVSAGDRVTITCKASQSVSNDVAWYQQKPGQSPKLLIYYASNRYSGVPDRFTGSGYGTDFTFTISTVQAEDLAVYFCQQDYSSPWTFGGGTKLEIK
Take B3: the “% Live Cells (in vitro), KDY66 cells” value in assay [1] stood at 12%. For the same molecule, the “EC50 of killing of OV26 NTX tumor cells with anti-mouse IgG Fab-saporin” value in assay [3] was 5.7 pM.

B4: SC16.56 (antibody, V domains shown)
VH: QIQLVQSGPELKKPGETVKISCKASGYTFTNYGMNWVKQAPGKGLKWMAWINTYTGEPTYADDFKGRFAFSLETSASTASLQIINLKNEDTATYFCARIGDSSPSDYWGQGTTLTVSS
VL: SIVMTQTPKFLLVSAGDRVTITCKASQSVSNDVVWYQQKPGQSPKLLIYYASNRYTGVPDRFAGSGYGTDFSFTISTVQAEDLAVYFCQQDYTSPWTFGGGTKLEIR
Consider B4, for which, in assay [1], the “% Live Cells (in vitro), KDY66 cells” value amounted to 16%.

B5: SC16.65 (antibody, V domains shown)
VH: QVTLKESGPGILQPSQTLSLTCSFSGFSLSTSGMGVGWIRQPSGKGLEWLALIWWDDVKRYNPALKSRLTISKDASSSQVFLKIASVDTADTATYYCARIASYDYDVVYAMDYWGQGTSVSVSS
VL: QIVLTQSPALMSASPGEKVTMTCSVTSSVSYMYWYQQKPRSSPKPWIYLTSNLASGVPARFSGSGSGTSYSLTISSVEAEDAATYYCQQWRNNPFTFGSGTKVEIK
B5: the “% Live Cells (in vitro), KDY66 cells” value in assay [1] amounted to 13%.

B6: SC16.13 (antibody, V domains shown)
VH: QVTLKESGPGILQPSQTLSLTCSFSGFSLSTSGMGVGWIRQPSGKGLEWLAHIWWDDVKRYNPALKSRLTISKDTSSSQVFLKIASVDTADTATYYCARIVSFDNDVVSAMDYWGQGTSVTVSS
VL: QIVLTQSPALVSASPGEKVTMTCSASSSVSYMYWYQQKPRSSPKPWIYLTSNLASGVPARFSGSGSGTSYSLTISSMEAEDAATYYCQQWRSNPFTFGSGTKLEIK
Regarding B6, the “% Live Cells (in vitro), KDY66 cells” value in assay [1] was determined as 31%.

B7: hSC16.13 (antibody, V domains shown)
VH: QITLKESGPTLVKPTQTLTLTCTFSGFSLSTSGMGVGWIRQPPGKALEWLAHIWWDDVKRYSPSLKSRLTITKDTSKNQVVLTMTNMDPVDTATYYCARIVSFDNDVVSAMDYWGQGTLVTVSS
VL: DIQMTQSPSSLSASVGDRVTITCSASSSVSYMYWYQQKPGKAPKLLIYLTSNLASGVPSRFSGSGSGTDFTLTISSLQPEDFATYYCQQWRSNPFTFGQGTKLEIKR
notes: CDR-grafted humanized antibody; also called humanized SC16.13
For the molecule B7, in assay [4], the binding result is on record as “no binding”.

B8: hSC16.25 (antibody, V domains shown)
VL: EIVLTQSPDFQSVTPKEKVTITCSASSSVSYMHWYQQKPDQSPKLLIKDSSKLASGVPSRFSGSGSGTDFTLTINSLEAEDAATYYCQQWSSNPLTFGQGTKLEIK
V domain: QITLKESGPTLVKPTQTLTLTCTFSGFSLSTSGMGVGWIRQPPGKALEWLTDIWWDDNKYYNPSLKSRLTITKDTSKNQVVLTMTNMDPVDTATYYCARRVNYYYDPYYAMDYWGQGTTLVTVS
notes: CDR-grafted humanized antibody; also called humanized SC16.25
For B8, the binding result in assay [4] is recorded as “no binding”.

B9: SC16.15 (antibody, V domains shown)
VH: QVQLQQSGAELAKPGASVKMSCKASGYTFTRYWIHWIKQRPGQGLEWIGYINPTTVYTEFNQNFKDKATLTADKSSTTASMQLSSLTSEDSAVYYCARGGSNFFDYWGQGTTLTVSS
VL: DIQMTQSPASLAASVGETVAITCRASENIYYNLAWYQQKQGKSPQLLIYTANSLEDGVPSRFSGSGSGTQYSLKINSMQPEDSATYFCKQAYDVPPTFGGGTKLEIK
Take B9: the “% Live Cells (in vitro), KDY66 cells” value in assay [1] came to 24%. Besides, the “EC50 of killing of OV26 NTX tumor cells with anti-mouse IgG Fab-saporin” value in assay [3] was 0.14 pM.

B10: SC16.10 (antibody, V domains shown)
VH: QVTLKESGPGILQSSQTLSLTCSFSGFSLSTSGMGVGWIRQPSGKGLEWLAHIWWDDVKRYNPVLKSRLTISKDTSSSQVFLKIASVDTADTATYYCARLVDDLYYFDYWGQGTTLTVSS
VL: QIVLTQSPAIMSASLGERVTMTCTASSSVSSSYLHWYQQKPGSSPKLWIYSTSNLASGVPTRFSGSGSGTSYSLTISSMEAEDAATYYCHQYHRSPFTFGSGTKLEIK
As for B10, in assay [1], the “% Live Cells (in vitro), KDY66 cells” value was 18%.

B11: SC16.25 (antibody, V domains shown)
VH: QVTLKESGPGILQPSQTLSLTCSFSGFSLSTSGMGVGWIRQPSGEGLEWLTDIWWDDNKYYNPSLKSRLTISKDTSSNQVFLNITSVDTADTATYYCARRVNYYYDPYYAMDYWGQGTSVTVSS
VL: QIVLTQSPAIMSASPGEKVTMTCSASSSVSYMHWYQQKSGTSPKRWIYDSSKLASGVPARFSGSGSGTSYSLTISSMEAEDAATYYCQQWSSNPLTFGAGTKLELK
Consider B11, for which the “% Live Cells (in vitro), KDY66 cells” value in assay [1] is 28%.

B12: SC16.4 (antibody, V domains shown)
VH: QIQLVQSGPELKKPGETVKISCKASGYTFTDYSMHWVKQAPGKGLKWMGWINTETGEPGYADDFKGRFAFSLETSASTAYLQINNLKNEDTATYFCARYDGYAMDYWGQGTSVTVSS
VL: DIQMTQTTSSLSASLGDRVTISCRASQDISNYLNWYQQKPDGTVKLLIYYTSRLHSGVPSRFSGSGSGTDYSLTISNLELEDIATYFCQQGDMLPWTFGGGTKLEIK
Turning to B12, the “% Live Cells (in vitro), KDY66 cells” value in assay [1] stood at 49%.

B13: SC16.39 (antibody, V domains shown)
VH: EVKLEESGGGLVQFGGSMKLSCAASGFTFSDAWMDWVRQSPEKGLEWVAEIRNKANNHATYYPESVKGRFTISRDDSKSRVYLQMNNLRAEDTGIYYCTGYSSFAYWGQGTLVTVSA
VL: DIQMTQTTSSLSASLGDRVTISCRASQDVINYLNWYQQKPDGTVKLLIYYTSRLHSGVPSRFSGSGSRTDYSLTISNLEPEDIATYYCQQYSERPYTFGGGTKLEIK
B13: the “% Live Cells (in vitro), KDY66 cells” value in assay [1] worked out at 98%.
